Our source for the protein production values is a protein production outcome set (Wang et al. 2014).

A short description of this data set: label from the status in PepcDB records.
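Further: failed if final PepcDB status was selected cloned or expressed and not failed if soluble or beyond.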

For the sequence “MKEFFKMFFASILGVITAGIILFCIFLFIFFGIVAGIASKATGGTIPKIEANSILHIDNSSFPEIVSANPWSMLTGKDESVSLSQAVEAIGQAKNNPNITGIFLDLDNLSVGMASAEELRRALQDFKMSGKFVVSYADRYTQKGYYLSSIADKLYLNPKGMLGLIGIATQTMFYKDALDKFGVKMEIFKVGTYKAAVEPFMLNRMSDANREQITTYINGLWDKITSDIAESRKTAMDSVKMFADKGEMFGLAEKAVEMKLVDELAYRTDVEKELKKMSQRGEKDELRFVSLSQVLANGPMNKTKGSRIAVLFAEGEITEEIIKKPFDTDGSSITQELAKEIKAAADDDDIKAVVLRVNSPGGSAFTSEQIWKQVADLKAKKPIVVSMGDVAASGGYYIACAANSIVAEHTTLTGSIGIFGMFPNFAGVAKKIGVNMDVVQTSKYADLGNTFAPMTVEDRALIQRYIEQGYDLFLTRVSEGRNRTKAQIDSIAQGRVWLGDKALALGLVDELGGLDTAIKRAAKLAQLGGNYSIEYGKTKRNFFEELLSSSAADMKSAILSTILSDPEIEVLRELRSMPPRPSGIQARLPYYFMPY”, the protein production entry is reported as “failed”.

Consider “MKEGKHFVLVHGACHGGWSWYKLKPLLEAAGHKVTALDLAASGTDLRKIEELRTLYDYTLPLMELMESLSADEKVILVGHSLGGMNLGLAMEKYPQKIYAAVFLAAFMPDSVHNSSFVLEQYNERTPAENWLDTQFLPYGSPEEPLTSMFFGPKFLAHKLYQLCSPEDLALASSLVRPSSLFMEDLSKAKYFTDERFGSVKRVYIVCTEDKGIPEEFQRWQIDNIGVTEAIEIKGADHMAMLCEPQKLCASLLEIAHKYNLEHHHHHH”, for which the protein production entry was “not failed”.

For “MKEIALLAIARYGDLIQTTPLVRALRRAHPGARITAIVEDRFCGILPLLPGIDRTIVLNKQDIAWDIATGDSPLVPYLKMDEFVRKLEEGSYDLLVNITCSRLSAFFASCVTSRRRTGISADEAGERNIVTLEHHHHHH”, the protein production result was “failed”.

For “MKEIKEITKKDVQDAEIYLYGSVVEGDYSIGLSDIDVAIVSDVFEDRNRKLEFFGKITKKFFDSPFEFHILTKKEWKMSKRFIRKYRRLDLIT”, the protein production entry is on record as “not failed”.

With “MKEKDKWIKNFRTRMEGYSEPAPADLWEQLEKELDTVPKVIPMWRRWQAVAAVALLVVVSSLTVWFWQSPSANYLEKQSAELNVMHEPDELVPGSITPEQPMALVVPAARSGKKQHVKVGGVAKAEALAAEQEVLLNKEVEEIQIEENYIEEQKEESVIVEQKQQKQAGRSSYSAAKTNYAYVAPHRKKDRNWSVGLSTGNGTFSSSTSMDGYLPLPNGTRNATMNSAYGVETRAEIDKLVQFNNLSEGKDAQSDIKYRMPVTFGASLRFDLSDDWAVETGVTYTQLSSETRSGTEKNNYGWEEKLHYVGIPLKVNRNIWSNKRFEVYASAGGAVEKCVSGKRSIIGSVSTSNAGKDEQFSGGEENVKVKPLQWSLSAAAGAQFKITEKLGIYAEPGVVYYFDDGSNVNTIRKEHPFNFNIQLGVRFTLPK”, the protein production result was “failed”.

For “MKEKVVSLAQDLIRRPSISPNDEGCQQIIAERLEKLGFQIEWMPFNDTLNLWAKHGTSEPVIAFAGHTDVVPTGDENQWSSPPFSAEIIDGMLYGRGAADMKGSLAAMIVAAEEYVKANPNHKGTIALLITSDEEATAKDGTIHVVETLMARDEKITYCMVGEPSSAKNLGDVVKNGRRGSITGNLYIQGIQGHVAYPHLAENPIHKAALFLQELTTYQWDKGNEFFPPTSLQIANIHAGTGSNNVIPAELYIQFNLRYCTEVTDEIIKQKVAEMLEKHNLKYRIEWNLSGKPFLTKPGKLLDSITSAIEETIGITPKAETGGGTSDGRFIALMGAEVVEFGPLNSTIHKVNECVSVEDLGKCGEIYHKMLVNLLDS”, the protein production entry is recorded as “not failed”.

Turning to “MKELIKVIAFDADDTLWSNEPFFQEVEKQYTDLLKPYGTSKEISAALFQTEMNNLQILGYGAKAFTISMVETALQISNGKIAADIIRQIVDLGKSLLKMPIELLPGVKETLKTLKETGKYKLVVATKGDLLDQENKLERSGLSPYFDHIEVMSDKTEKEYLRLLSILQIAPSELLMVGNSFKSDIQPVLSLGGYGVHIPFEVMWKHEVTETFAHERLKQVKRLDDLLSLLG”, the protein production result is given as “not failed”.

For “MKELTVPDTTPLLPIVDPFEQQDSEGPDSTKVYPFYRNLAEGKLTMQRCKSCGRIFYPPQAMCKHCNSTDYEWVEVPKRGKIHAFSALLLGFPMVIEEFAPFVIAVARFGDYPENGVQIVGAMFDVDYSELSIGDEVEWEILKIKGPGDKVRYWYHFRKVLEHHHHHH”, the protein production result was “failed”.

For “MKEQSYGKFAKFLHWVMALMIIVLIAVGTYMAGLDKADPNKMLLVGMHKSFGVIFMQFAILRVIWSRLNNSPKLPDVLASWEKLLSKTITGSLYLLMLAIPFSGYAMTNLFGYPVSLFGLIDLPVLFGKNTEMALLAKQAHFLLVYTLMAALFAHITGALKHRFLDKPEADVLPRMMPIKPRI”, the protein production result is “failed”.

As for “MKERILQEIKTRVNRKSWELWFSSFDVKSIEGNKVVFSVGNLFIKEWLEKKYYSVLSKAVKVVLGNDATFEITYEAFEPHSSYSEPLVKKRAVLLTPLNPDYTFENFVVGPGNSFAYHAALEVAKHPGRYNPLFIYGGVGLGKTHLLQSIGNYVVQNEPDLRVMYITSEKFLNDLVDSMKEGKLNEFREKYRKKVDILLIDDVQFLIGKTGVQTELFHTFNELHDSGKQIVICSDREPQKLSEFQDRLVSRFQMGLVAKLEPPDEETRKSIARKMLEIEHGELPEEVLNFVAENVDDNLRRLRGAIIKLLVYKETTGKEVDLKEAILLLKDFIKPNRVKAMDPIDELIEIVAKVTGVPREEILSNSRNVKALTARRIGMYVAKNYLKSSLRTIAEKFNRSHPVVVDSVKKVKDSLLKGNKQLKALIDEVIGEISRRALSGLEHHHHHH”, the protein production result was “not failed”.

“MKERKKKYVALWQVMQRECRRLVSRPLYLFCMVIAPLFCYLFFTTLMDSGLPQNLPAGVVDMDDSSTSRNIVRNLDAFSQTGVVAHYSNVTDARIAVQEGKIYGFFYIPKGLSAEAQSQRQPKISFYTNYSYLIAGSLLFRDMKMMGELTAGSAARSVLYAKGATEDQAMGFLQPIVIDTHPLNNPWLNYSVYLCNTLIPGVLMLLIFMVTVYSIGVEIKDRTAREWLRMSNNSIYIALAGKLLPHTVVFFIMGIFYNVYLYGFLHFPCNSGIFPMIFATLCLVLASQCCGIVMIGTLPTLRLGLSFASLWGVISFSISGFSFPVMAMNPVLQALSNLFPLRHYFLIYVDQALNGYSMAYSWSNYMALLIFMMLPFFVVHRLKEALVYYKYIP”: the protein production entry is “failed”.

For the sequence “MKESRNTLNSSELNTTTSWSKHDTHWVLSLFGTAVGAGILFLPINLGIGGFWPLVAMAFLAFPMTYLAHRGLARFVLSSKIKNADFTDVVEEHFGAKAGRSISLLYFLSIFPILLIYGVGITNTVDSFMVNQAGMEALPRELLSGVLVFALIAIMMAGEKVMLRAFAVMVYPLVAILAFLSFYLMPNWTMPVLDTPDMGAFASTMWLAVPVVIFSFSHAAAISSFANVQRRHYGDDADAKAELILRCTSIMLIAFVLLFVFSCVLALSPEQLAQAKAQNVSVLSYLANATDNPFIATLGPLVAFVAITSSFLGHFLGARESLNGLITKHSNLSETRVDRISVVVLFLSIWAAAIMNPSILGMMEALSGPVIAMILFIMPMLAVHKIESMKQYRGKLSTYFVLITGIVAVSALVFSLLS”, the protein production entry is recorded as “not failed”.

Regarding “MKETRGYGGDAPFCTRLNHSYTGMWAPERSAEARGNLTRPPGSGEDCGSVSVAFPITMLLTGFVGNALAMLLVSRSYRRRESKRKKSFLLCIGWLALTDLVGQLLTTPVVIVVYLSKQRWEHIDPSGRLCTFFGLTMTVFGLSSLFIASAMAVERALAIRAPHWYASHMKTRATRAVLLGVWLAVLAFALLPVLGVGQYTVQWPGTWCFISTGRGGNGTSSSHNWGNLFFASAFAFLGLLALTVTFSCNLATIKALVSRCRAKATASQSSAQWGRITTETAIQLMGIMCVLSVCWSPLLIMMLKMIFNQTSVEHCKTHTEKQKECNFFLIAVRLASLNQILDPWVYLLLRKILLRKFCQENPAVSS”, the protein production entry is “failed”.

Consider “MKEVIAQNAKLSADDLKEILPKANKLEDFAFEKNEDSTISEVFQAKNGSENEGYIIKVSPKGFNGPIDMVVAIDKNREISGVKVLSQAETPGLGAKVEESSFSEKFKGLTIEDNIKIVKTSPSSQGEIQGITGATISSNAVSSGINDAISFYKENVLGEDLSKEKILNLSKINLEGDLKELTIELEEGIDKVSIVSNGEKEIGYAIEASEVGMYEEKPIKFALGISTGGIITGVQIIDHKETAGLGDLIEDENFLNSFIGVSSLDKLSVKENTNEIDLSVYGEVVNVDSISGATKSSMAIIKGITNVINFYNNNLSLEHHHHHH”, for which the protein production result is recorded as “not failed”.

As for “MKEVLFISEMERGRAEIESRVSNIKTTQDFGYREKIKEKKDASTAYAACISELLLEEKVKKIAVAYDFPIFYSNYLTEAGFTIVPVKSPFRKMRSVKGPEEIEAIKYAQMAGEKAMEAAITLIADAEEKDGVLYFEGQVLTGAKVNSVIDHTLLDFGCEAEETIVSCGEDTSNPHGTTEGPLRANAPIILDIFPRSKKKRYFADMTRTVLRGEASEKLKEMYETVLVAQQKALEMVKPGIHSSEIHRAVCDLFEARGYHTYRSGSKAGFTHSTGHGVGLDIHELPSVGESGVLLETGNVITIEPGLYYPGIGGIRLEDMVLVTKTGYENFTGLEKKFVLKSFYNLEHHHHHH”, the protein production entry is “failed”.

Take “MKFDNYIFDFDGTLADTKKCGEVATQSAFKACGLTEPSSKEITHYMGIPIEESFLKLADRPLDEAALAKLIDTFRHTYQSIEKDYIYEFAGITEAITSLYNQGKKLFVVSSKKSDVLERNLSAIGLNHLITEAVGSDQVSAYKPNPEGIHTIVQRYNLNSQQTVYIGDSTFDVEMAQHAGVPSAAVTWGAHDARSLLHSNPDFIINDPSEINTVL”: the protein production result is recorded as “failed”.

As for “MKFKTIIKASYSIIFLSFQKVLHWEHIKFTAFKNLLSVSTKILIDKSSSVKFAGKICTESNVELKALNGGKLFIAENVFINSNSIVVALDNIHIGSNTLIGPGVLIFDHDHDFEKDKNSGTKNGRHFVTKPIRIESDVWIGGNSVILKGVTIGKGAVIAAGSIVLKDVEPYCLYAGNPAKKIRSY”, the protein production entry was “failed”.

On to “MKFKTRDLVLIPLFTAMTIIGAFIKIPVGVVPINLQFLFTALSGVLLGGALGAVSQILYVALGLIGLPVFTSGGGLSYIFTPTFGYLIGYILAAFIIGKITHSRKPKFTTIFFSCILGLIAVYFIGTTYLYIILNYVAGKNVSIIASIKLGVLMFIPGDIVKCIITALLGSRILPILNKTSLNN”, for which the protein production entry was “failed”.

For the sequence “MKFLVENLNGSSFELEVDYRDTLLVVKQKIERSQHIPVSKQTLIVDGIVILREDLTVEQCQIVPTSDIQLEVSSDDDNPNHNDCDQKPQTEQSPALPLVSAEEYFERQDWPLTAEELRQIYSYRPEHEG”, the protein production entry is “failed”.

With “MKFPGQRKSKHYFPVKTRDPLLEQLTQQPQPFATYISGIDQTLVDIEAKVEDELLSRYGLPKGNSTLINDEQAHTLYTELKQNGLISDEFAGGTIGNTVHNYSILADDRSVLFGVMSQNIEVGSYAYRYLCNTSSKVDLNYLQPVDGPIGRCFTLISDCGERTFAISKGAMDKLTPEYIDKDIVQGSSALVLTAYLMRASGGDRITDAAMCAIEYAKAAEVPVVLTLGTRFLIEEDPIWWQNFIKEHVTILAMNEDEGEALTGFRDPLLASEKALEWCDMVLTTAGPIGLYTAGYTDDAEKRETSHTLLPGAIPEFNRYEFSRPKLKSDCENPIKVYAHISPYMGGPEKIGNTNGAGDGALSALLHDLAANTFHKTNVPGSSKHKRDGLCYSSFSQICKYANRVAYEVLAQHSPRLSRGLPEREDSLEESYWER”, the protein production entry is reported as “failed”.

With “MKFRTLLVVNKVVVFAKLLSVLQKVEKTAFLILCSEADEEIRLVTKADAFNGLYTSALLRKSEFFEDYRIESKYHNLIGLEFQLSAFEDAIRASSNAAGVIMKLSKKEQACISFHIQTLTSNIIQDVPVRVITPTQIEELAEPNLPPCSGVVLSPLQKIAILIEKFRHVSQSIQLTLQSTQAAELHIKCHSETLEVETCIKGLKIVTLNSEESSSEIEQSTSASVDGRHLSKAMFAAYLIPQRAFCCKLSILNHGNIHWIH”, the protein production result is “failed”.
